Data on 21 variants can be found in the supplement of paper PMC7125110.

± gives the standard error. For part of these data: This sample holds only a part of the variants without activity.

B1: glmS ribozyme (parent)
chain: AUAAAAGCGCCAGAACUACAGAAAUGUAGUUGACGAGGAGGAGGUUUAUCGAAUUUUCGGCGGAUGCCUCCAAA

Details in all cases: with glucosamine-6-phosphate
The variants in data set [1] derive from B1. Nature of the data set: kcat; higher = faster cleavage; RNA array. An outline of the steps: (§1)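 The measurements used barcoded ribozyme variants on sequenced MiSeq chips, transcribed in situ by E. coli RNA polymerase and tracked at 37 °C with a hybridised Cy3 probe. Glucosamine-6-phosphate, 40 μM to 10 mM in HEPES/KCl/Mg(OAc)2 buffer, was flowed in while tiles were imaged over ~14 h. Baseline-normalised signals, also normalised to non-cleaving reference variants, gave per-tile medians that were fit to one- or two-exponential decays for kobs. kcat and KM resulted from weighted Michaelis–Menten fits across concentrations.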

The variants in data set [2] derive from B1. Nature of the data set: KM; higher = weaker cofactor use; RNA array. An outline of the steps: as §1
In data set [3] the parent is B1. In words: self-cleavage kobs at 10000 uM GlcN6P; higher = faster cleavage; RNA array. The essentials:
as §1

The variants in data set [4] derive from B1. In words: self-cleavage kobs at 40 uM GlcN6P; higher = faster cleavage; RNA array. The essentials:
as §1

The variants in data set [5] derive from B1. In words: self-cleavage kobs at 160 uM GlcN6P; higher = faster cleavage; RNA array. The essentials:
as §1

The variants in data set [6] derive from B1. In words: self-cleavage kobs at 640 uM GlcN6P; higher = faster cleavage; RNA array. The essentials:
as §1

Data set [7] covers variants of B1. In words: self-cleavage kobs at 2500 uM GlcN6P; higher = faster cleavage; RNA array. The essentials:
as §1

On to G37C U54G U55G, for which, in the data set with glucosamine-6-phosphate [1], the kcat amounted to 5.85e-05 ± 2.8e-06 s⁻¹. The KM with glucosamine-6-phosphate [2] came out at 2190 ± 470 µM. Further, the “self-cleavage kobs at 10000 uM GlcN6P” value with glucosamine-6-phosphate [3] was 4.79e-05 ± 1.5e-05 s⁻¹.
On to G7A A39U, for which, in the data set with glucosamine-6-phosphate [1], the kcat came out at 1.87e-05 ± 1.7e-06 s⁻¹. Also, in the data set with glucosamine-6-phosphate [2], the KM was 2780 ± 970 µM.
As for G40U U65G G66U, the kcat with glucosamine-6-phosphate [1] worked out at 3.4e-05 ± 4.8e-06 s⁻¹. Besides, the “self-cleavage kobs at 40 uM GlcN6P” value in the data set with glucosamine-6-phosphate [4] was below 1e-05 s⁻¹. For the same variant, in the data set with glucosamine-6-phosphate [3], the “self-cleavage kobs at 10000 uM GlcN6P” value came to 3.38e-05 ± 1.5e-05 s⁻¹.
Consider A14U C70G, for which the kcat with glucosamine-6-phosphate [1] was found to be 0.000149 ± 3.1e-05 s⁻¹. Further, the “self-cleavage kobs at 160 uM GlcN6P” value with glucosamine-6-phosphate [5] is 5.56e-05 ± 7.3e-06 s⁻¹. Moreover, the “self-cleavage kobs at 640 uM GlcN6P” value with glucosamine-6-phosphate [6] came to 8.73e-05 ± 9.3e-06 s⁻¹. Moreover, the “self-cleavage kobs at 2500 uM GlcN6P” value with glucosamine-6-phosphate [7] was 0.000147 ± 1.8e-05 s⁻¹.
On to G51C U69A, for which the kcat with glucosamine-6-phosphate [1] was below 1e-05 s⁻¹. Moreover, the “self-cleavage kobs at 40 uM GlcN6P” value with glucosamine-6-phosphate [4] is below 1e-05 s⁻¹.
Regarding C10A C71U, the kcat with glucosamine-6-phosphate [1] was below 1e-05 s⁻¹.
On to U47G A48G, for which, in the data set with glucosamine-6-phosphate [1], the kcat is 8.61e-05 ± 8.6e-06 s⁻¹. In addition, the “self-cleavage kobs at 640 uM GlcN6P” value in the data set with glucosamine-6-phosphate [6] was determined as 4.31e-05 ± 1.6e-05 s⁻¹. In addition, the “self-cleavage kobs at 2500 uM GlcN6P” value in the data set with glucosamine-6-phosphate [7] stood at 8.59e-05 ± 1.7e-05 s⁻¹. The “self-cleavage kobs at 10000 uM GlcN6P” value in the data set with glucosamine-6-phosphate [3] amounted to 7.67e-05 ± 1.3e-05 s⁻¹.
With A33U A52U, the kcat with glucosamine-6-phosphate [1] is 1.29e-05 ± 2.5e-06 s⁻¹. Moreover, the KM with glucosamine-6-phosphate [2] is 8300 ± 3400 µM.
As for U45A A52C, in the data set with glucosamine-6-phosphate [1], the kcat amounted to 6.93e-05 ± 3e-05 s⁻¹. For the same variant, the “self-cleavage kobs at 160 uM GlcN6P” value in the data set with glucosamine-6-phosphate [5] was below 1e-05 s⁻¹. The “self-cleavage kobs at 2500 uM GlcN6P” value with glucosamine-6-phosphate [7] amounted to 0.000121 ± 3.4e-05 s⁻¹. Further, the “self-cleavage kobs at 10000 uM GlcN6P” value with glucosamine-6-phosphate [3] is 5.55e-05 ± 1.5e-05 s⁻¹.
As to A15U U54G, the kcat with glucosamine-6-phosphate [1] was determined as 0.00446 ± 0.00053 s⁻¹. For the same variant, the Michaelis-Menten constant (KM) with glucosamine-6-phosphate [2] is 1730 ± 330 µM. Moreover, the “self-cleavage kobs at 40 uM GlcN6P” value with glucosamine-6-phosphate [4] came out at 8.2e-05 ± 2.2e-05 s⁻¹. Also, the “self-cleavage kobs at 160 uM GlcN6P” value with glucosamine-6-phosphate [5] was determined as 0.000411 ± 6.8e-05 s⁻¹. The “self-cleavage kobs at 640 uM GlcN6P” value in the data set with glucosamine-6-phosphate [6] was determined as 0.00189 ± 0.00075 s⁻¹. The “self-cleavage kobs at 2500 uM GlcN6P” value with glucosamine-6-phosphate [7] was determined as 0.00279 ± 0.00048 s⁻¹. Further, in the data set with glucosamine-6-phosphate [3], the “self-cleavage kobs at 10000 uM GlcN6P” value worked out at 0.00368 ± 0.0005 s⁻¹.
Turning to G40U U57C, the kcat with glucosamine-6-phosphate [1] was 2.46e-05 ± 1.1e-05 s⁻¹. In addition, the “self-cleavage kobs at 40 uM GlcN6P” value with glucosamine-6-phosphate [4] was below 1e-05 s⁻¹. In addition, the “self-cleavage kobs at 2500 uM GlcN6P” value with glucosamine-6-phosphate [7] came out at 3.3e-05 ± 1.4e-05 s⁻¹.
For A14G G60C, the kcat with glucosamine-6-phosphate [1] is 1.11e-05 ± 3.4e-06 s⁻¹.
In the case of A6G A53G, in the data set with glucosamine-6-phosphate [1], the kcat was 0.000509 ± 6.7e-05 s⁻¹. For the same variant, the KM with glucosamine-6-phosphate [2] amounted to 2390 ± 600 µM. Moreover, the “self-cleavage kobs at 160 uM GlcN6P” value in the data set with glucosamine-6-phosphate [5] was determined as 3.62e-05 ± 1.3e-05 s⁻¹. The “self-cleavage kobs at 640 uM GlcN6P” value with glucosamine-6-phosphate [6] was 9.71e-05 ± 1.5e-05 s⁻¹. In addition, in the data set with glucosamine-6-phosphate [7], the “self-cleavage kobs at 2500 uM GlcN6P” value amounted to 0.000306 ± 4.1e-05 s⁻¹. The “self-cleavage kobs at 10000 uM GlcN6P” value in the data set with glucosamine-6-phosphate [3] was 0.000395 ± 4.4e-05 s⁻¹.
On to G29U U69A, for which, in the data set with glucosamine-6-phosphate [1], the kcat amounted to 5.85e-05 ± 1.1e-05 s⁻¹. The “self-cleavage kobs at 640 uM GlcN6P” value in the data set with glucosamine-6-phosphate [6] is 3.35e-05 ± 1e-05 s⁻¹. Also, in the data set with glucosamine-6-phosphate [7], the “self-cleavage kobs at 2500 uM GlcN6P” value is 6.77e-05 ± 9.3e-06 s⁻¹. Further, the “self-cleavage kobs at 10000 uM GlcN6P” value in the data set with glucosamine-6-phosphate [3] was 4.84e-05 ± 1.1e-05 s⁻¹.
For the variant C16G A53G, the kcat in the data set with glucosamine-6-phosphate [1] was determined as 0.00701 ± 0.0012 s⁻¹. Moreover, the KM in the data set with glucosamine-6-phosphate [2] was 2160 ± 510 µM. Also, in the data set with glucosamine-6-phosphate [4], the “self-cleavage kobs at 40 uM GlcN6P” value came to 0.000168 ± 3.2e-05 s⁻¹. The “self-cleavage kobs at 160 uM GlcN6P” value with glucosamine-6-phosphate [5] was determined as 0.000453 ± 7.3e-05 s⁻¹. For the same variant, the “self-cleavage kobs at 640 uM GlcN6P” value with glucosamine-6-phosphate [6] came to 0.00151 ± 0.00025 s⁻¹. In addition, the “self-cleavage kobs at 2500 uM GlcN6P” value with glucosamine-6-phosphate [7] was 0.00339 ± 0.00099 s⁻¹. Also, the “self-cleavage kobs at 10000 uM GlcN6P” value in the data set with glucosamine-6-phosphate [3] came to 0.0061 ± 0.0011 s⁻¹.
Take A42U U47G: in the data set with glucosamine-6-phosphate [1], the kcat is 3.95e-05 ± 1.3e-06 s⁻¹. For the same variant, the KM in the data set with glucosamine-6-phosphate [2] was 6570 ± 510 µM. For the same variant, the “self-cleavage kobs at 40 uM GlcN6P” value with glucosamine-6-phosphate [4] was below 1e-05 s⁻¹. Also, the “self-cleavage kobs at 10000 uM GlcN6P” value with glucosamine-6-phosphate [3] came to 2.38e-05 ± 9e-06 s⁻¹.
On to A48U, for which the kcat with glucosamine-6-phosphate [1] is 0.000759 ± 5.7e-05 s⁻¹. The KM in the data set with glucosamine-6-phosphate [2] turned out to be 2420 ± 350 µM. The “self-cleavage kobs at 40 uM GlcN6P” value with glucosamine-6-phosphate [4] was below 1e-05 s⁻¹. Further, the “self-cleavage kobs at 640 uM GlcN6P” value with glucosamine-6-phosphate [6] was determined as 0.000153 ± 3.5e-06 s⁻¹. The “self-cleavage kobs at 2500 uM GlcN6P” value in the data set with glucosamine-6-phosphate [7] is 0.000432 ± 1e-05 s⁻¹. Moreover, the “self-cleavage kobs at 10000 uM GlcN6P” value with glucosamine-6-phosphate [3] came to 0.000593 ± 1.1e-05 s⁻¹.
Consider A39U C61U, for which the kcat with glucosamine-6-phosphate [1] is below 1e-05 s⁻¹.
Regarding A33U U69A, the kcat with glucosamine-6-phosphate [1] amounted to 2.24e-05 ± 3e-06 s⁻¹. Also, the “self-cleavage kobs at 40 uM GlcN6P” value with glucosamine-6-phosphate [4] was below 1e-05 s⁻¹.
With A15C A64C, the kcat with glucosamine-6-phosphate [1] turned out to be 1.33e-05 ± 4.6e-06 s⁻¹.
Turning to U69A C71U, the kcat in the data set with glucosamine-6-phosphate [1] turned out to be 7.42e-05 ± 1.9e-05 s⁻¹. The “self-cleavage kobs at 160 uM GlcN6P” value with glucosamine-6-phosphate [5] came to 3.69e-05 ± 1.3e-05 s⁻¹. Besides, the “self-cleavage kobs at 640 uM GlcN6P” value in the data set with glucosamine-6-phosphate [6] was determined as 9.28e-05 ± 1.6e-05 s⁻¹. In addition, the “self-cleavage kobs at 2500 uM GlcN6P” value in the data set with glucosamine-6-phosphate [7] is 8.39e-05 ± 1.6e-05 s⁻¹. Further, the “self-cleavage kobs at 10000 uM GlcN6P” value with glucosamine-6-phosphate [3] turned out to be 4.27e-05 ± 1.7e-05 s⁻¹.

As usually defined, the kcat is the maximal rate divided by the concentration of active sites. By KM is commonly meant the substrate concentration at which the rate is half of its maximum.
